From patent US9745556B2, “Variants of glycerol dehydrogenase having D-lactate dehydrogenase activity and uses thereof” (UNIVERSITY OF FLORIDA RESEARCH FOUNDATION, INC., priority 2011, dated 2017)

Assays:
CC(=O)C(=O)O [1] = assay: Kinetic properties of mutated glycerol dehydrogenase F245S; assay type: biochemical, Bacillus coagulans; conditions: other: F245S, 55° C., pH 5.0
Description: (§1) Cultures were grown (LB-glucose medium in pH-controlled fermenters) to mid-exponential phase, harvested, and used for enzyme assays as previously described (23). Glycerol dehydrogenase from strain QZ19 was purified using differential ammonium sulfate precipitation followed by anion-exchange and hydrophobic interaction chromatography. GlyDH and GlyDH* were also purified as N-terminal His-tagged enzymes (33). GlyDH and LDH were assayed using standard methods (34, 35).
(§2) During the development of a D-lactate producing B. coagulans derivative (strain QZ19), a glycerol dehydrogenase (GDH) with two mutations (D121N and F245S) evolved to catalyze the reduction of pyruvate to D-lactate (Table 1 and FIG. 7). The first derivative that produced a significant D-lactate titer, strain QZ15, carried a single mutation that changed the amino acid phenylalanine at position 245 to serine. As strain QZ15 was further selected for higher lactate productivity, the GDH protein acquired a second mutation in amino acid position 121 (D121N) (FIG. 15). Combination of these two mutations led strain QZ19 to produce D-lactic acid at a titer close to 100 g/L in 48 hours at pH 5.0 and 50° C. in pH-controlled fermentations. In order to evaluate the role of each of these two mutations in the catalysis of pyruvate reduction to D-lactate, GDH/LDH enzyme with either of the two substitutions (D121N or F245S) and the protein with both changes were expressed in E. coli, purified, and their biochemical properties were determined.

OCC(O)CO [2] = assay: as above; assay type: biochemical, Bacillus coagulans; conditions: other: F245S, 55° C., glycerol oxidation, pyruvate reduction or lactate oxidation, pH 5.0
Description: as §1, §2

CC(=O)C(=O)O [3] = assay: Kinetic properties of mutated glycerol dehydrogenase D121N; assay type: biochemical, Bacillus coagulans; conditions: other: D121N, 55° C., pH 5.0
Description: as §1, §2

OCC(O)CO [4] = assay: as above; assay type: biochemical, Bacillus coagulans; conditions: other: D121N, 55° C., pH 5.0
Description: as §1, §2

C[C@@H](O)C(=O)O = assay: as above; assay type: biochemical, Bacillus coagulans; conditions: other: D121N, 55° C., pH 5.0
Description: as §1, §2

[5] = target: Bacillus coagulans glycerol dehydrogenase (GlyDH/GDH), native, strain P4-102B, SEQ ID NO: 3 (Heyndrickxia coagulans, UniProt A0AAN0T381); assay type: biochemical; conditions: native enzyme
Description: as §1
as §2, with “Combination of these two mutations led strain QZ19 to produce D-lactic acid at a titer close to 100 g/L in 48 hours at pH 5.0 and 50° C. in pH-controlled fermentations.” left out

[6] = target: T1, Bacillus coagulans glycerol dehydrogenase (GlyDH/GDH, native SEQ ID NO: 3) variant D121N (Heyndrickxia coagulans, UniProt A0AAN0T381, D121N); assay: Kinetic properties of mutated glycerol dehydrogenase D121N; assay type: biochemical; conditions: D121N alone; compared to native enzyme; in words
T1 sequence (A0AAN0T381 1-367 D121N): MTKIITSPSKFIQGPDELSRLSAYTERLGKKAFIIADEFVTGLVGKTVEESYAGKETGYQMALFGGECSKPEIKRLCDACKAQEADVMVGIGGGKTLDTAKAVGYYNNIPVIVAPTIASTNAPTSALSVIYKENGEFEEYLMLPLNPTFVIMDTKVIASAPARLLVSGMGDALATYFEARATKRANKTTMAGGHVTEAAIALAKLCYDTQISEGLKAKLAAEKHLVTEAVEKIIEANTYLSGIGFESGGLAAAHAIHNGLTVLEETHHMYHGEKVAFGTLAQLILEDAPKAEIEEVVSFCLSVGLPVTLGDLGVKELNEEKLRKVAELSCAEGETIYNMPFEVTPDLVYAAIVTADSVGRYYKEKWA
Description: as §1, §2

[7] = substrate: OCC(O)CO; assay: purified protein, by the assay type; conditions: other: column head, D121N; 55° C.; pH 5.0; 55.0 °C
[8] = substrate: CC(=O)C(=O)O; assay: purified protein, by the assay type; conditions: other: enzyme with both changes; pH 5.0; 50.0 °C
[9] = substrate: NC(=O)C1=CN([C@@H]2O[C@H](COP(=O)(O)OP(=O)(O)OC[C@H]3O[C@@H](n4cnc5c(N)ncnc54)[C@H](O)[C@@H]3O)[C@@H](O)[C@H]2O)C=CC1; assay: purified protein, by the assay type; conditions: other: Native, 55° C., glycerol oxidation, pyruvate reduction or lactate oxidation, pH 5.0
[10] = substrate: OCC(O)CO; assay: purified protein, by the assay type; assay type: biochemical, Bacillus coagulans; conditions: other: Native, 55° C., glycerol oxidation, pyruvate reduction or lactate oxidation, pH 5.0
Description: as §1
as §2, with “Combination of these two mutations led strain QZ19 to produce D-lactic acid at a titer close to 100 g/L in 48 hours at pH 5.0 and 50° C. in pH-controlled fermentations.” left out

Bacillus coagulans glycerol dehydrogenase (GlyDH/GDH, native SEQ ID NO: 3) variant F245S (Heyndrickxia coagulans; F245S)
kcat (CC(=O)C(=O)O [1]): 19.5 s⁻¹ | kcat/Km (CC(=O)C(=O)O [1]): 80 M⁻¹ s⁻¹ | kcat (OCC(O)CO [2]): 62.5 s⁻¹ | kcat/Km (OCC(O)CO [2]): 800 M⁻¹ s⁻¹

Bacillus coagulans glycerol dehydrogenase (GlyDH/GDH, native SEQ ID NO: 3) variant D121N (Heyndrickxia coagulans; D121N)
kcat (CC(=O)C(=O)O [3]): 2.0 s⁻¹ | kcat/Km (CC(=O)C(=O)O [3]): 3 M⁻¹ s⁻¹ | kcat (OCC(O)CO [4]): 13.2 s⁻¹ | kcat/Km (OCC(O)CO [4]): 100 M⁻¹ s⁻¹ | kcat (C[C@@H](O)C(=O)O): 1.9 s⁻¹ | kcat/Km (C[C@@H](O)C(=O)O): 8 M⁻¹ s⁻¹

OCC(O)CO [Glycerol]
efficiency at oxidizing glycerol with NAD^+ relative to reducing pyruvate using NADH [5]: about 1,000 times | change in apparent Km for glycerol [6]: slight increase

B1: Bacillus coagulans glycerol dehydrogenase (GlyDH/GDH, native SEQ ID NO: 3) variant F245S, D121N (GlyDH*, strain QZ19, SEQ ID NO: 1) (Heyndrickxia coagulans; … (protein)
chain: MTKIITSPSKFIQGPDELSRLSAYTERLGKKAFIIADDFVTGLVGKTVEESYAGKETGYQMALFGGECSKPEIERLCEMSKSEEADVVVGIGGGKTLDTAKAVGYYNNIPVIVAPTIASTNAPTSALSVIYKENGEFEEYLMLPLNPTFVIMDTKVIASAPARLLVSGMGDALATYFEARATKRANKTTMAGGRVTEAAIALAKLCYDTQILEGLKAKLAAEKHLVTEAVEKIIEANTYLSGIGSESGGLAAAHAIHNGLTVLEETHHMYHGEKVAFGTLAQLILEDAPKAEIEEVVSFCLSVGLPVTLGDLGVKELNEEKLRKVAELSCAEGETIYNMPFEVTPDLVYAAIVTADSVGRYYKEKWA
kcat [7]: 16.7 s⁻¹ | kcat/Km [7]: 100 M⁻¹ s⁻¹ | Km [8]: 51000 µM

B2: Bacillus coagulans glycerol dehydrogenase (GlyDH/GDH), native, strain P4-102B, SEQ ID NO: 3 (Heyndrickxia coagulans) (protein)
chain: MTKIITSPSKFIQGPDELSRLSAYTERLGKKAFIIADDFVTGLVGKTVEESYAGKETGYQMALFGGECSKPEIERLCEMSKSEEADVVVGIGGGKTLDTAKAVGYYNNIPVIVAPTIASTDAPTSALSVIYKENGEFEEYLMLPLNPTFVIMDTKVIASAPARLLVSGMGDALATYFEARATKRANKTTMAGGRVTEAAIALAKLCYDTQILEGLKAKLAAEKHLVTEAVEKIIEANTYLSGIGFESGGLAAAHAIHNGLTVLEETHHMYHGEKVAFGTLAQLILEDAPKAEIEEVVSFCLSVGLPVTLGDLGVKELNEEKLRKVAELSCAEGETIYNMPFEVTPDLVYAAIVTADSVGRYYKEKWA
Km [9]: 400 µM | kcat [10]: 28.0 s⁻¹ | kcat/Km [10]: 2400 M⁻¹ s⁻¹
